Experimental findings from US20100022624 are described below.

The data set addresses α-tubulin (human, endogenous).

B1: HDAC6 (human, endogenous) (protein)
chain: MTSTGQDSTTTRQRRSRQNPQSPPQDSSVTSKRNIKKGAVPRSIPNLAEVKKKGKMKKLGQAMEEDLIVGLQGMDLNLEAEALAGTGLVLDEQLNEFHCLWDDSFPEGPERLHAIKEQLIQEGLLDRCVSFQARFAEKEELMLVHSLEYIDLMETTQYMNEGELRVLADTYDSVYLHPNSYSCACLASGSVLRLVDAVLGAEIRNGMAIIRPPGHHAQHSLMDGYCMFNHVAVAARYAQQKHRIRRVLIVDWDVHHGQGTQFTFDQDPSVLYFSIHRYEQGRFWPHLKASNWSTTGFGQGQGYTINVPWNQVGMRDADYIAAFLHVLLPVALEFQPQLVLVAAGFDALQGDPKGEMAATPAGFAQLTHLLMGLAGGKLILSLEGGYNLRALAEGVSASLHTLLGDPCPMLESPGAPCRSAQASVSCALEALEPFWEVLVRSTETVERDNMEEDNVEESEEEGPWEPPVLPILTWPVLQSRTGLVYDQNMMNHCNLWDSHHPEVPQRILRIMCRLEELGLAGRCLTLTPRPATEAELLTCHSAEYVGHLRATEKMKTRELHRESSNFDSIYICPSTFACAQLATGAACRLVEAVLSGEVLNGAAVVRPPGHHAEQDAACGFCFFNSVAVAARHAQTISGHALRILIVDWDVHHGNGTQHMFEDDPSVLYVSLHRYDHGTFFPMGDEGASSQIGRAAGTGFTVNVAWNGPRMGDADYLAAWHRLVLPIAYEFNPELVLVSAGFDAARGDPLGGCQVSPEGYAHLTHLLMGLASGRIILILEGGYNLTSISESMAACTRSLLGDPPPLLTLPRPPLSGALASITETIQVHRRYWRSLRVMKVEDREGPSSSKLVTKKAPQPAKPRLAERMTTREKKVLEAGMGKVTSASFGEESTPGQTNSETAVVALTQDQPSEAATGGATLAQTISEAAIGGAMLGQTTSEEAVGGATPDQTTSEETVGGAILDQTTSEDAVGGATLGQTTSEEAVGGATLAQTTSEAAMEGATLDQTTSEEAPGGTELIQTPLASSTDHQTPPTSPVQGTTPQISPSTLIGSLRTLELGSESQGASESQAPGEENLLGEAAGGQDMADSMLMQGSRGLTDQAIFYAVTPLPWCPHLVAVCPIPAAGLDVTQPCGDCGTIQENWVCLSCYQVYCGRYINGHMLQHHGNSGHPLVLSYIDLSAWCYYCQAYVHHQALLDVKNIAHQNKFGEDMPHPH
On to B1, for which the “amount of acetylated α-tubulin (immunoblot) after HDAC6 siRNA” value is “only HSMCs transfected with siRNAs specific for HDAC6 displayed increased levels of acetylated α-tubulin”.
